Test [1] concerns the target ^32 P-labeled GST/PKA fusion protein (Schistosoma japonicum (Blood fluke)) [GST: P08515]. Put plainly: peptide on AminoLink resin, precipitation of 32P-labelled control fusion, counting.
The target of test [2] is ^32 P-labeled GST/PKA/Src SH3 fusion protein (PKA site phosphorylated) (Schistosoma japonicum (Blood fluke)) [GST: P08515]. Put plainly: peptide on AminoLink agarose, 32P-labelled fusion, counting.
Test [3] has as its target radiolabeled GST/PKA/rasGAP SH3 (Schistosoma japonicum (Blood fluke)) [GST: P08515]. The description is as above.

Ends that are not written are not given here.

In patent US5541109 one finds fold lower binding than GST/PKA/Src SH3 and percent of CPM bound to beads/CPM applied to beads data, which are given here for 8 molecules.

As for LALARPLPVPPWRQI (not fully specified) [fuse5B 4.3-15 (15 mer)], in test [1], the fold lower binding than GST/PKA/Src SH3 came to 100 fold.

RPLPVPP (not fully specified) [fuse5B 4.3-7 (7 mer)]: in test [1], the fold lower binding than GST/PKA/Src SH3 is 100 fold.

QSRPLPSPPKFT (not fully specified) [peptide pL14-1] came in with a fold lower binding than GST/PKA/Src SH3 in test [1] of 100 fold. The percent of CPM bound to beads/CPM applied to beads in test [2] was found to be 70%.

The molecule RPLPSPP (not fully specified) [peptide pL14-1-7-mer] came in with a fold lower binding than GST/PKA/Src SH3 in test [1] of 100 fold.

Turning to APPAATPPPPRLFRPPA (also: covalently coupled to AminoLink agarose) [peptide pL17-2], in test [3], the percent of CPM bound to beads/CPM applied to beads was found to be 10%.

The molecule LARPLPVPPWRQ (not fully specified; printed as Leu Ala Arg Pro Leu Pro Val Pro Pro Trp Arg Gln) [fuse5B 4.3-12 (12 mer)] came in with a fold lower binding than GST/PKA/Src SH3 in test [1] of 100 fold.

As for TPAPPPLPPRNV (also: covalently coupled to AminoLink agarose) [peptide pL35], the percent of CPM bound to beads/CPM applied to beads in test [2] was determined as 90%.

KPPTPPPEPET (not fully specified) [pSV40, proline-rich peptide from SV40 T antigen] registered a percent of CPM bound to beads/CPM applied to beads in test [2] of less than 1%.
